What was measured:
beta-amyloid 42 peptide = beta-amyloid 42 peptide (UniProt P05067); assay: SiMoA
[1] = target: pyroglutamate beta-amyloid peptide (pGlu3-Aβ); assay: SiMoA

limit of detection (LoD) (beta-amyloid 42 peptide) [pM]	limit of detection (LoD) [1] [pM]	Substance
200	56	Aducanumab (antibody)
–	5	Donanemab (antibody)

From doi:10.1101/2024.10.11.617910
